We go through 1 molecule from doi:10.1101/2021.08.02.454737.

The target in data set [1] is T1, UPF1 RM-3F (RNA mutant, UPF1R RM-3F) (human, UniProt Q92900-2 1-1118, N524A;K547A;R843A).
T1 sequence: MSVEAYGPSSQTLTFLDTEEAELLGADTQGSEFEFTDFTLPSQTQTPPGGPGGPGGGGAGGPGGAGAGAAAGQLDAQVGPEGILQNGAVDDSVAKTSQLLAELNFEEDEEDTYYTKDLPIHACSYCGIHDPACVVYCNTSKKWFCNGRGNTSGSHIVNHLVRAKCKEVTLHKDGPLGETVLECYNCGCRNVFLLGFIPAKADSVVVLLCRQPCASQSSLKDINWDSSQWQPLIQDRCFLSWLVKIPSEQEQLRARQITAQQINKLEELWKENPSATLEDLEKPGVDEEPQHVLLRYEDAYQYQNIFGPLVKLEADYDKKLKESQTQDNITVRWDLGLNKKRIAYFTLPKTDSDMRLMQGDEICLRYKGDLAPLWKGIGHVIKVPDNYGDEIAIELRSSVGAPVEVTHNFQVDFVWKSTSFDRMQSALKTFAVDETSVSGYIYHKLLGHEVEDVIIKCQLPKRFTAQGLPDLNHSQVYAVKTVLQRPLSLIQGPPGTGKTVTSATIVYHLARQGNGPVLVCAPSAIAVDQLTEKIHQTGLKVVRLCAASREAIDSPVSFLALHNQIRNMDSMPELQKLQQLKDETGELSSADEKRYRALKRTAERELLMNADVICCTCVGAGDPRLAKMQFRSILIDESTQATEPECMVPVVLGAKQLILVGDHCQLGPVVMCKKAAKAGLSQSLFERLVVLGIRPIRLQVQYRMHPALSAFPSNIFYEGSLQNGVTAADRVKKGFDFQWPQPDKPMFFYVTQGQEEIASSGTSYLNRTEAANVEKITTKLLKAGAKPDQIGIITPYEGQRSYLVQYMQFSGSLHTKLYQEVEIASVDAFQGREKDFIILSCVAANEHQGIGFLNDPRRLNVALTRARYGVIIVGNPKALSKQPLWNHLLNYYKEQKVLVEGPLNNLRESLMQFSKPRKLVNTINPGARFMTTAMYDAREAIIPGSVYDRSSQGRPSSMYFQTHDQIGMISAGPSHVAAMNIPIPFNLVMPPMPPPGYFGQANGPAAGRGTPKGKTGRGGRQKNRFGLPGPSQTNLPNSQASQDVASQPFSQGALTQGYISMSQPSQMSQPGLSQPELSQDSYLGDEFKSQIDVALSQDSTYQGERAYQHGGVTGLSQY
In words: MST.

Another data set concerns the target T2, UPF1-3F (wt, UPF1R-3F) (human, UniProt Q92900-2 1-1118).
T2 sequence: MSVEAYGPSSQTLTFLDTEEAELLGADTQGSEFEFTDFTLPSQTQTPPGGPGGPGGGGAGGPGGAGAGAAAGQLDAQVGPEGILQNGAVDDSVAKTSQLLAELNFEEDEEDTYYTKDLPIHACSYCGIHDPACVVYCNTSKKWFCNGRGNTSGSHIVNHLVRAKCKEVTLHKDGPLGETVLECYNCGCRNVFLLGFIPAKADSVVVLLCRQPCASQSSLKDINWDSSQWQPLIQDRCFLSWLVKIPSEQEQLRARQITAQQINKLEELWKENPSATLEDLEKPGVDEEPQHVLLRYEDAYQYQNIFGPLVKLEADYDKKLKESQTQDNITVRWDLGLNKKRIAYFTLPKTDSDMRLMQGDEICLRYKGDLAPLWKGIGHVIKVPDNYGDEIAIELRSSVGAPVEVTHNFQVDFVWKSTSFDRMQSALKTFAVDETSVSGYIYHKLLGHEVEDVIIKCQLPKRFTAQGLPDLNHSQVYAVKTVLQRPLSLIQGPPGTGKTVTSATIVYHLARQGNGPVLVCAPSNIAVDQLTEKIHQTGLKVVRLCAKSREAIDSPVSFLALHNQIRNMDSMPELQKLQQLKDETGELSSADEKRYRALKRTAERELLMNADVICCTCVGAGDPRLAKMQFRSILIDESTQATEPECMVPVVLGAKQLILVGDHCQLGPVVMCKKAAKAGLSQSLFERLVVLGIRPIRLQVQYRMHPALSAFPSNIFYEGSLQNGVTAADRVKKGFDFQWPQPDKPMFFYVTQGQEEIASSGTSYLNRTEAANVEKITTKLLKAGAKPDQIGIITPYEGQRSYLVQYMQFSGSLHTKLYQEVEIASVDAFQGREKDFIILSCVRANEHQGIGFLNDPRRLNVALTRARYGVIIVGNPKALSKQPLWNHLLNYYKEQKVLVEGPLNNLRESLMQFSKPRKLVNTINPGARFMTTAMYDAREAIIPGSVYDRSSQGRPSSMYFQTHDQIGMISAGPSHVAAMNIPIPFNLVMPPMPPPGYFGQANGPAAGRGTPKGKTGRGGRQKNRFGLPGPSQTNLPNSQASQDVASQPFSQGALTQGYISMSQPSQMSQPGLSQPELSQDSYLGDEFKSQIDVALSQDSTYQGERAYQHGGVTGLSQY
The data set is described as follows: MST.

In general, Kd refers to the free concentration of one partner at which half of the binding sites on the other are occupied at equilibrium, for simple one-to-one binding. On to UUUUUUUUUUUUUUUUUUUUUUUUUUUUUU (ssRNA) [U30 RNA], for which the binding result in data set [1] was “no binding”. Also, the dissociation constant Kd in the data set with UPF1-3F (wt, UPF1R-3F) stood at 25.3 ± 4.43 nM.
